# Measured values published in the supplement of paper PMC7877785.
# ± gives the uncertainty stated by the source.
# Assay: self-splicing fitness, log relative to wild type (ln ratio); higher = more splicing; Tetrahymena group I intron in knt gene, E. coli kanamycin selection, DiMSum; sequences stand for … in CUCUCU…GGAGGGAAAAGUUAUCAGGCAUGCACCUGGUAGCUAGUCUUUAAACCAAUAGAUUGCAUCGGUUUAAAAGGCAAGACCGUCAAAUUGCGGGAAAGGGGUCAACAGCCGUUCAGUACCAAGUCUCAGGGGAAACUUUGAGAUGGCCUUGCAAAGGGUAUGGUAAUAAGCUGACGGACAUGGUCCUAACCACGCAGCCAAGUCCUAAGUCAACAGAUCUUCUGUUGAUAUGGAUGCAGUUCACAGACUAAAUGUCGGUCGGGGAAGAUGUAUUCUUCUCAUAAGAUAUAGUCGGACCUCUCCUUAAUGGGAGCUAGCGGAUGAAGUGAUGCAACACUGGAGCCGCUGGGAACUAAUUUGUAUGCGAAAGUAUAUUGAUUAGUUUUGGAGUACUCGUGGUCG
# Outline: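 The eight P1ex-region nucleotides of an intron in the knt kanamycin-resistance gene on pET-22b(+) were all randomised and the library put into E. coli BL21(DE3). Six replicate transformations were grown overnight at 37°C or 30°C on LB agar with or without 25 μg/mL kanamycin, together with 100 μg/mL carbenicillin, 50 μM IPTG and 0.2% rhamnose. Colonies were pooled and amplicon-sequenced on an Illumina HiSeq 2500. Fitness from DiMSum is the error-weighted combination of wild-type-normalised replicate fold changes, kanamycin over none.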
Sequence,self-splicing fitness (ln) (30 °C),self-splicing fitness (ln) (37 °C)
AUGUAGCAAUAUUACGUCUU,-1.62 ± 0.13,-0.0792 ± 0.13
AUGUAGCAAUAUUACGUUCC,-1.92 ± 0.12,-0.942 ± 0.17
AUUAAGCAAUAUUACGAAUU,-2.27 ± 0.16,-1.46 ± 0.21
AUUAAGCAAUAUUACGACGA,-0.668 ± 0.11,0.398 ± 0.13
AUUAAGCAAUAUUACGAGCA,-0.83 ± 0.15,-0.726 ± 0.18
AUUAAGCAAUAUUACGAGGC,-3.18 ± 0.39,-1.99 ± 0.34
AUUAAGCAAUAUUACGAGUC,-3.25 ± 0.15,-3.29 ± 0.21
AUUAAGCAAUAUUACGCAGA,-2.88 ± 0.27,-1.36 ± 0.2
AUUAAGCAAUAUUACGCAUG,-1.09 ± 0.08,-0.301 ± 0.11
AUUAAGCAAUAUUACGGACA,-0.398 ± 0.22,-0.339 ± 0.2
AUUAAGCAAUAUUACGGCAU,-0.722 ± 0.076,-0.458 ± 0.094
AUUAAGCAAUAUUACGGCGU,-0.179 ± 0.073,0.712 ± 0.097
AUUAAGCAAUAUUACGGUGU,-2.11 ± 0.088,-0.653 ± 0.11
AUUAAGCAAUAUUACGUCCG,-1.47 ± 0.13,-0.734 ± 0.17
AUUAAGCAAUAUUACGUCUC,-2.06 ± 0.12,-1.4 ± 0.19
AUUAAGCAAUAUUACGUGCC,-0.626 ± 0.096,-1.07 ± 0.14
AUUCAGCAAUAUUACGACAC,-1.45 ± 0.14,0.224 ± 0.17
AUUCAGCAAUAUUACGAGCC,-2.87 ± 0.47,-1.67 ± 0.45
AUUCAGCAAUAUUACGCAGU,-2.18 ± 0.17,0.359 ± 0.15

Sequence,self-splicing fitness (ln) (30 °C),self-splicing fitness (ln) (37 °C)
AUUCAGCAAUAUUACGCCGG,-1.07 ± 0.13,-0.848 ± 0.19
AUUCAGCAAUAUUACGCCUA,-0.46 ± 0.12,-0.501 ± 0.13
AUUCAGCAAUAUUACGCUGA,-3.06 ± 0.28,-2.6 ± 0.26
AUUCAGCAAUAUUACGCUUA,-0.623 ± 0.078,-0.332 ± 0.091
AUUCAGCAAUAUUACGCUUU,-0.755 ± 0.055,-0.787 ± 0.068
AUUCAGCAAUAUUACGGAAA,-1.03 ± 0.12,-0.365 ± 0.12
AUUCAGCAAUAUUACGGCAA,-0.94 ± 0.083,0.292 ± 0.1
AUUCAGCAAUAUUACGGGUG,-1.71 ± 0.077,-0.135 ± 0.086
AUUCAGCAAUAUUACGGUAG,-3.49 ± 0.17,-2.87 ± 0.2
AUUCAGCAAUAUUACGGUUG,-2.89 ± 0.11,-0.981 ± 0.11
AUUCAGCAAUAUUACGUACC,-0.843 ± 0.061,-0.514 ± 0.089
AUUCAGCAAUAUUACGUCCC,-1.53 ± 0.13,-1.3 ± 0.14
AUUCAGCAAUAUUACGUCCG,-0.866 ± 0.2,-1.33 ± 0.24
AUUCAGCAAUAUUACGUCGG,-3.16 ± 0.17,-2.28 ± 0.21
AUUCAGCAAUAUUACGUCUA,-0.634 ± 0.11,-0.557 ± 0.1
AUUCAGCAAUAUUACGUGCA,-0.628 ± 0.08,-0.47 ± 0.083
AUUCAGCAAUAUUACGUUUU,-2.06 ± 0.09,-0.724 ± 0.091
AUUGAGCAAUAUUACGAAAG,-2.69 ± 0.38,-1.72 ± 0.29
AUUGAGCAAUAUUACGAAAU,-3.34 ± 0.12,-2.88 ± 0.16
